Results on one substance are retold here after patent US20200102399A1, “Methods of Treating Peripheral T Cell Lymphoma Using Anti-CD30 Antibody Drug Conjugate Therapy” (Seattle Genetics, Inc., priority 2018, published 2020).

The test system of the data set is newly diagnosed CD30-positive mature T- and NK-cell neoplasms, including sALCL. As to the kind of experiment: Phase 1 study SGN35-011: brentuximab vedotin with CHOP or CHP chemotherapy. The class given is in vivo, human. To be noted: given concomitantly with CHP. The source says: The clinical safety and activity of brentuximab vedotin administered sequentially and concurrently with multiagent chemotherapy were previously evaluated in a phase 1 study in patients with newly diagnosed CD30-positive mature T- and NK-cell neoplasms, including sALCL (Study SGN35-011). This phase 1 study was implemented to determine the safety and activity of sequential and combination frontline treatment approaches of brentuximab vedotin with CHOP or CHP chemotherapy. The maximum tolerated dose of brentuximab vedotin was 1.8 mg/kg given concomitantly with CHP. At an interim analysis in this study (data presented at the T-Cell Lymphoma Forum 2012), 20 patients in this study had been treated with brentuximab vedotin 1.2 or 1.8 mg/kg given concomitantly with CHP for 6 cycles, followed by continued brentuximab vedotin every 3 weeks for up to 10 additional cycles for responding patients.

For brentuximab vedotin, the maximum tolerated dose stood at 1.8 mg/kg.
